The results in this text go back to patent US11629367.

This assay deals with Mouse IL-11 receptor alpha (Cat. No. MBS553276, MyBioSource, Inc.) (mouse) (UniProt Q64385). Description: cell-based or functional assay.
Chain of UniProt Q64385 (Q64385 24-372): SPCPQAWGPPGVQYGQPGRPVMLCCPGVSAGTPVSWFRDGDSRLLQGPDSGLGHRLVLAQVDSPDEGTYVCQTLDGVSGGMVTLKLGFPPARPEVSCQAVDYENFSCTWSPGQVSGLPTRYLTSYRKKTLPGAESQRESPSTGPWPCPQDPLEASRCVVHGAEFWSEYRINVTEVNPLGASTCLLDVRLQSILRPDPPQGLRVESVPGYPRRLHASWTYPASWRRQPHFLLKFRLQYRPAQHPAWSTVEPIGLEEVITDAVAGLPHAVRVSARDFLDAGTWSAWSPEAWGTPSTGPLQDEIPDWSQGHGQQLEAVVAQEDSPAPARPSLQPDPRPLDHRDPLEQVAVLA

As for “Reference standard of rhIL-11, derived from yeast (Hangzhou Jiuyuan Gene Engineering Company) (from UniProt P20809 23-199) (ligand)”, the EC50, 7TD1 cell proliferation assay (MTS, absorbance at 490 nM) worked out at 1.1 ng/mL.

Regarding “recombinant human IL-11 (rhIL-11) expressed in Pichia pastoris and purified by the described method (from UniProt P20809 22-199) (ligand)”, the EC50, 7TD1 cell proliferation assay (MTS, absorbance at 490 nM) was found to be 2.2 ng/mL.
